Experimental findings from PMC2654920, “Borrelia recurrentis Employs a Novel Multifunctional Surface Protein with Anti-Complement, Anti-Opsonic and Invasive Potential to Escape Innate Immunity” (PLoS ONE, 2009) are described below.

In assay [1] the target is T1, human complement factor H (human, UniProt P08603 19-1231).
T1 construct: complement factor H, human, 20 short consensus repeats (SCRs); purified protein or as present in normal human serum; purified human factor H of Calbiochem is the only one named; also called CFH; source: bought: Calbiochem (purified human factor H); also in normal human serum
Description: ELISA; competition inhibition assay: HcpA (2 µg/ml) coated; constant CFH (3 µg/ml in the methods, 2 µg/ml in the results) with PLG 0.001-100 µg/ml, or constant PLG (10 µg/ml) with CFH 0.001-100 µg/ml. The conditions noted are these: both partners purified. Background: In an ELISA, binding on a coated surface is turned into a signal by an enzyme label.

A further assay has as its target T2, recombinant CFHR-1 (human, UniProt Q03591 19-330).
T2 construct: complement factor H-related protein 1, human, recombinant; also called CFH-related protein 1
T2 sequence: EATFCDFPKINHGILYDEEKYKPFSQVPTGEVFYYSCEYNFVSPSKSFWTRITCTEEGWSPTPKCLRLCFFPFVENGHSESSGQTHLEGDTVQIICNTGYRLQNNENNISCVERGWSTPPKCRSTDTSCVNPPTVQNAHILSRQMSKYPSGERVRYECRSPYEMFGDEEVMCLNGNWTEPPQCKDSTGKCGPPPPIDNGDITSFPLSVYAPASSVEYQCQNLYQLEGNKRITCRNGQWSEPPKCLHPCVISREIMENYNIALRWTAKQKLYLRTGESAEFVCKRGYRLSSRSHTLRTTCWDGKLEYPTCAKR
Description: far-Western, overlay or dot blot; ligand affinity blot: purified recombinant HcpA separated by SDS-PAGE, on nitrocellulose strips, incubated with recombinant CFHL-1, CFH deletion constructs or recombinant CFHR-1; anti-CFH immune serum, mAb JHD7 or JHD8. Conditions: both partners purified.

B1: recombinant full-length HcpA (residues 18 to 175) of B. recurrentis A1 (domain or fragment)
chain: LLSKNANLQPKTLETLESNIDDGQKQALAFFQESLQDNKHLDALKQAQSALLKDIKDKPQKTLNFKYNKTKLEQLFRKLGNDKTKQFLKNLHVTIKFINNGSFQSFSSANFNDLDTLEKKQERAINSIKEELYVNYYLYTNELVDLDYFFYRAMNYLS
notes: HcpA, surface lipoprotein of B. recurrentis A1, residues 18-175, lacking the hydrophobic leader peptide; cloned into pQE-30Xa with primers BrBam and BrSal; also called intact HcpA; source: E. coli JM109, purified as recommended by the manufacturer (Qiagen); not shown: His6, N-terminal, kept
In the case of B1, the binding result (in assay [1]; in the assay with recombinant CFHR-1) was “binds” in each case.
